According to paper PMC2896254 (Biopolymers, 2009):
Like-named read-outs stand apart in the source and are kept apart here. The star is where a group is joined. MBP = 4-(maleimido)benzophenone, alkylating the Cys, O=C(c1ccccc1)c1ccc(N2C(=O)CC(*)C2=O)cc1; Biotin = O=C1N[C@H]2[C@H](CS[C@H]2CCCCC(=O)*)N1

What was measured:
Assay in all cases: pull-down
[1] = molecular target: T1, Wild-type full-length Ffh carrying an N-terminal deca-His tag (E. coli, UniProt P0AGD7 1-453)
T1 sequence (looked up): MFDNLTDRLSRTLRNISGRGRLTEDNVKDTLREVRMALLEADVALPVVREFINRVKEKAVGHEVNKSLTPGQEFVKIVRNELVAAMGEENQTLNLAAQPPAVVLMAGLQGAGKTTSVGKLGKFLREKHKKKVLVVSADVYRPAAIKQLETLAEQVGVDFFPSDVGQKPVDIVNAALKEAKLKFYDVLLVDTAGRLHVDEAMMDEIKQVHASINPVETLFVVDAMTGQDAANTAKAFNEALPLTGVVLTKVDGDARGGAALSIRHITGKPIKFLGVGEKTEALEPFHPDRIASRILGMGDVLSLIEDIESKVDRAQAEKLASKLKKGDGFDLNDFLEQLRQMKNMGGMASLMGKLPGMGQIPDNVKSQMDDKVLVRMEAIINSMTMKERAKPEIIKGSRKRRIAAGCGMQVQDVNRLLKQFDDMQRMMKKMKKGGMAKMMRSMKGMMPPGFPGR

[2] = molecular target: T1, Wild-type full-length Ffh carrying an …; remark: listed apart in the source
[3] = molecular target: T2, His-tagged M domain of Ffh (M297 to R453) (E. coli, UniProt P0AGD7 297-453)
T2 sequence (looked up): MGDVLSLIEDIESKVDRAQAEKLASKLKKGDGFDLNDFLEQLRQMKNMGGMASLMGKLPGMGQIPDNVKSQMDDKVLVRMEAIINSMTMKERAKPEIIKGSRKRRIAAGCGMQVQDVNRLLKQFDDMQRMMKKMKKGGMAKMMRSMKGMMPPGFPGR

[4] = molecular target: T3, His-tagged NG domain of Ffh (residues M1 to V300) (E. coli, UniProt P0AGD7 1-300)
T3 sequence (looked up): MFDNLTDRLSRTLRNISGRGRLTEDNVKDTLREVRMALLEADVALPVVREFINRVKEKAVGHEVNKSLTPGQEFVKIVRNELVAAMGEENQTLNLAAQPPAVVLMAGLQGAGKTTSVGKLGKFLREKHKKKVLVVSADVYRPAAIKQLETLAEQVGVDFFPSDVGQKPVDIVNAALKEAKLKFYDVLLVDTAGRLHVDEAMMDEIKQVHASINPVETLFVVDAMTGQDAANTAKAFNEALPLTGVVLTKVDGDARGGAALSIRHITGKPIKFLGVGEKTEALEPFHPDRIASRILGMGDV

B1: BioPhoAC10 (peptide)
peptide: Biotin-MKQKKKLALCLLLLLLTPVTKA-NH2
SMILES: CSCC[C@H](NC(=O)CCCC[C@@H]1SC[C@@H]2NC(=O)N[C@@H]21)C(=O)N[C@@H](CCCCN)C(=O)N[C@@H](CCC(N)=O)C(=O)N[C@@H](CCCCN)C(=O)N[C@@H](CCCCN)C(=O)N[C@@H](CCCCN)C(=O)N[C@@H](CC(C)C)C(=O)N[C@@H](C)C(=O)N[C@@H](CC(C)C)C(=O)N[C@@H](CS)C(=O)N[C@@H](CC(C)C)C(=O)N[C@@H](CC(C)C)C(=O)N[C@@H](CC(C)C)C(=O)N[C@@H](CC(C)C)C(=O)N[C@@H](CC(C)C)C(=O)N[C@@H](CC(C)C)C(=O)N[C@H](C(=O)N1CCC[C@H]1C(=O)N[C@H](C(=O)N[C@H](C(=O)N[C@@H](CCCCN)C(=O)N[C@@H](C)C(N)=O)[C@@H](C)O)C(C)C)[C@@H](C)O
Q: Does B1 bind [1]?
A: binds

B2: BioPhoAC14 (peptide)
peptide: Biotin-MKQKKKLALLLLLCLLTPVTKA-NH2
SMILES: CSCC[C@H](NC(=O)CCCC[C@@H]1SC[C@@H]2NC(=O)N[C@@H]21)C(=O)N[C@@H](CCCCN)C(=O)N[C@@H](CCC(N)=O)C(=O)N[C@@H](CCCCN)C(=O)N[C@@H](CCCCN)C(=O)N[C@@H](CCCCN)C(=O)N[C@@H](CC(C)C)C(=O)N[C@@H](C)C(=O)N[C@@H](CC(C)C)C(=O)N[C@@H](CC(C)C)C(=O)N[C@@H](CC(C)C)C(=O)N[C@@H](CC(C)C)C(=O)N[C@@H](CC(C)C)C(=O)N[C@@H](CS)C(=O)N[C@@H](CC(C)C)C(=O)N[C@@H](CC(C)C)C(=O)N[C@H](C(=O)N1CCC[C@H]1C(=O)N[C@H](C(=O)N[C@H](C(=O)N[C@@H](CCCCN)C(=O)N[C@@H](C)C(N)=O)[C@@H](C)O)C(C)C)[C@@H](C)O
Q: Does B2 bind [2]?
A: binds

B3: BioPhoAC11 (peptide)
peptide: Biotin-MKQKKKLALLCLLLLLTPVTKA-NH2
SMILES: CSCC[C@H](NC(=O)CCCC[C@@H]1SC[C@@H]2NC(=O)N[C@@H]21)C(=O)N[C@@H](CCCCN)C(=O)N[C@@H](CCC(N)=O)C(=O)N[C@@H](CCCCN)C(=O)N[C@@H](CCCCN)C(=O)N[C@@H](CCCCN)C(=O)N[C@@H](CC(C)C)C(=O)N[C@@H](C)C(=O)N[C@@H](CC(C)C)C(=O)N[C@@H](CC(C)C)C(=O)N[C@@H](CS)C(=O)N[C@@H](CC(C)C)C(=O)N[C@@H](CC(C)C)C(=O)N[C@@H](CC(C)C)C(=O)N[C@@H](CC(C)C)C(=O)N[C@@H](CC(C)C)C(=O)N[C@H](C(=O)N1CCC[C@H]1C(=O)N[C@H](C(=O)N[C@H](C(=O)N[C@@H](CCCCN)C(=O)N[C@@H](C)C(N)=O)[C@@H](C)O)C(C)C)[C@@H](C)O
Q: Does B3 bind [1]?
A: binds

Q: Does B3 bind [3]?
A: binds

Q: Does B3 bind [4]?
A: binds

B4: BioPhoAC11-BP (peptide)
peptide: Biotin-MKQKKKLALLC(MBP)LLLLLTPVTKA-NH2
SMILES: CSCC[C@H](NC(=O)CCCC[C@@H]1SC[C@@H]2NC(=O)N[C@@H]21)C(=O)N[C@@H](CCCCN)C(=O)N[C@@H](CCC(N)=O)C(=O)N[C@@H](CCCCN)C(=O)N[C@@H](CCCCN)C(=O)N[C@@H](CCCCN)C(=O)N[C@@H](CC(C)C)C(=O)N[C@@H](C)C(=O)N[C@@H](CC(C)C)C(=O)N[C@@H](CC(C)C)C(=O)N[C@@H](CSC1CC(=O)N(c2ccc(C(=O)c3ccccc3)cc2)C1=O)C(=O)N[C@@H](CC(C)C)C(=O)N[C@@H](CC(C)C)C(=O)N[C@@H](CC(C)C)C(=O)N[C@@H](CC(C)C)C(=O)N[C@@H](CC(C)C)C(=O)N[C@H](C(=O)N1CCC[C@H]1C(=O)N[C@H](C(=O)N[C@H](C(=O)N[C@@H](CCCCN)C(=O)N[C@@H](C)C(N)=O)[C@@H](C)O)C(C)C)[C@@H](C)O
Q: Does B4 bind [1]?
A: binds

B5: BioPhoAC12 (peptide)
peptide: Biotin-MKQKKKLALLLCLLLLTPVTKA-NH2
SMILES: CSCC[C@H](NC(=O)CCCC[C@@H]1SC[C@@H]2NC(=O)N[C@@H]21)C(=O)N[C@@H](CCCCN)C(=O)N[C@@H](CCC(N)=O)C(=O)N[C@@H](CCCCN)C(=O)N[C@@H](CCCCN)C(=O)N[C@@H](CCCCN)C(=O)N[C@@H](CC(C)C)C(=O)N[C@@H](C)C(=O)N[C@@H](CC(C)C)C(=O)N[C@@H](CC(C)C)C(=O)N[C@@H](CC(C)C)C(=O)N[C@@H](CS)C(=O)N[C@@H](CC(C)C)C(=O)N[C@@H](CC(C)C)C(=O)N[C@@H](CC(C)C)C(=O)N[C@@H](CC(C)C)C(=O)N[C@H](C(=O)N1CCC[C@H]1C(=O)N[C@H](C(=O)N[C@H](C(=O)N[C@@H](CCCCN)C(=O)N[C@@H](C)C(N)=O)[C@@H](C)O)C(C)C)[C@@H](C)O
Q: Does B5 bind [2]?
A: binds

B6: BioPhoAC13 (peptide)
peptide: Biotin-MKQKKKLALLLLCLLLTPVTKA-NH2
SMILES: CSCC[C@H](NC(=O)CCCC[C@@H]1SC[C@@H]2NC(=O)N[C@@H]21)C(=O)N[C@@H](CCCCN)C(=O)N[C@@H](CCC(N)=O)C(=O)N[C@@H](CCCCN)C(=O)N[C@@H](CCCCN)C(=O)N[C@@H](CCCCN)C(=O)N[C@@H](CC(C)C)C(=O)N[C@@H](C)C(=O)N[C@@H](CC(C)C)C(=O)N[C@@H](CC(C)C)C(=O)N[C@@H](CC(C)C)C(=O)N[C@@H](CC(C)C)C(=O)N[C@@H](CS)C(=O)N[C@@H](CC(C)C)C(=O)N[C@@H](CC(C)C)C(=O)N[C@@H](CC(C)C)C(=O)N[C@H](C(=O)N1CCC[C@H]1C(=O)N[C@H](C(=O)N[C@H](C(=O)N[C@@H](CCCCN)C(=O)N[C@@H](C)C(N)=O)[C@@H](C)O)C(C)C)[C@@H](C)O
Q: Does B6 bind [2]?
A: binds
